B1: TRIM55 (parent)
chain: FQMEKIEHGYENMNHFTVNLNREE

Variants of: B1
Experiment: protein stability index of a GFP-peptide fusion (GPS, HEK-293T) (PSI 1-6); higher = more stable
Details: c terminus: a fixed tail appended
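Note: lentivirally expressed fusions sorted by FACS into six bins by GFP to DsRed ratio, PSI derived from sequencing read proportions per bin multiplied by bin number.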

Protein stability index: each site, then its substitutions
E24: V 2.49; A 2.27; W 2.1; I 1.98; G 1.97; M 1.57; D 2.77; R 3.3; N 2.33; S 2.06; Y 1.57; C 2.4; F 1.77
G9: L 2.94; T 3.07; Q 3.05; P 2.93; V 3.03; C 2.33; N 3.26; K 2.81; F 2.34; D 3.9; I 2.4; W 3.05; A 3.63; S 3.21
T17: H 3.4; Q 3.75; F 1.74; C 2.49; A 2.59; E 4.27; N 3.76; L 2.31; Y 1.92; W 1.93; D 4.07; R 3.1; V 2.25; G 2.86; P 3.7; S 3.03
L20: F 2.71; V 1.91; Q 3.33; C 2.33; T 2.7; M 2.51; H 3.23; S 3.2; G 3.43; W 2.35; A 3.2; R 3.01; D 3.47; E 3.53
F16: D 4.71; N 4.31; W 1.96; C 4.06; T 4.36; R 4.25; Q 4.23; K 4.52; E 4.5; M 3.87; L 4.21; S 4.41
N12: Q 2.51; F 2.17; H 2.38; P 2.37; G 2.98; I 1.94; M 1.99; K 2.44; D 3.65; R 2.34; L 2.14; W 1.83; C 2.06; A 2.19; Y 1.84
K5: W 2.41; A 2.9; R 2.68; I 2.24; G 2.93; N 3.54; S 3.43; C 3.14; Q 3.51; H 2.61; D 4.14; F 1.7; L 2.6; P 3.55
N19: V 2.29; S 2.16; W 2.09; L 2.22; Y 1.86; K 2.47; P 3.4; E 3.28; G 2.72; I 2.05; C 2.65; H 2.24; M 2.27
E7: Q 2.73; N 2.3; I 2.42; R 2.05; L 2.46; K 2.05; V 1.85; W 2.65; H 2.66; M 2.46; A 2.45; F 1.44; S 2.34
E4: H 2.66; R 2.19; C 2.16; P 2.58; A 2.5; D 2.76; T 2.13; Y 2.1; S 1.9; L 2.43; N 2.64; W 1.94; M 1.73; K 2.37; I 2.24; G 2.45
M13: H 3.13; R 2.68; K 2.87; Y 2.38; I 2.52; D 3.79; V 2.46; Q 3.33; L 2.61; A 3.23; T 3.36; S 3.04
Y10: N 3.27; K 2.82; T 3.1; P 3.63; E 3.74; S 3.44; F 3.02; V 3.35; L 3.08; W 2.42; R 3.18; G 3.31; H 2.94; C 2.74; M 3.31; I 3.14; Q 3.37; D 3.31
I6: K 3.07; S 3.18; G 2.66; T 2.87; H 3.24; V 3; D 3.25; R 2.6; L 3.44; P 3.32; N 2.87
Q2: L 2.96; I 2.06; G 3.7; W 2.62; F 2.69; K 3.49; P 3.86; C 2.57; M 3.42; S 3.98; A 3.14; N 3.8; H 2.28; E 4.49; D 4.1
E11: V 1.97; R 2.15; S 2.59; I 2.31; H 1.95; W 2.35; A 1.82; T 2.42; M 1.98; D 2.55; C 1.56; G 2.14; F 2.04; Q 2.18; N 2.16; K 2.42
M3: L 2.82; N 3.36; W 2.11; Q 3.41; S 2.88; K 2.68; T 3.44; I 2.82; H 3.43; P 2.91; C 2.83; F 2.86; G 3.62; V 2.8
R22: E 3.77; Y 2.31; M 2.44; T 2.99; A 2.73; V 2.56; I 2.4; F 1.98; D 3.32; L 1.96; N 3.57; C 3.09; Q 3.1; H 2.64; K 3.75
F1: T 4.67; W 3.78; V 4.19; Y 3.3; K 4.17; S 4.48; I 4.23; A 4.71; H 4.58; M 4.27; N 5.02; R 4.45; L 4.05; D 4.61; E 5.1; Q 4.85
H15: K 3.15; N 3.77; C 2.22; D 3.97; L 1.8; V 1.76; R 3.12; W 1.98; Y 1.82; E 3.62; A 2.1; T 2.76
N21: F 2.07; H 2.15; C 1.82; E 3.54; M 2.1; T 2.65; I 2.59; Y 2.5; V 2.4; G 2.86; K 2.87; Q 3.07; S 3.08; L 2.2; R 2.51; P 2.94; W 1.13
N14: Q 3.11; M 2.29; I 1.98; R 2.86; C 2.29; Y 3.78; S 2.68; K 2.99; T 2.69; V 2.15; E 4.16
H8: A 2.77; V 3.03; R 2.74; G 2.37; L 2.44; E 3.51; T 2.73; D 2.71; N 2.89; Q 2.89; W 2
V18: D 3.94; L 3.08; E 3.61; T 3.86; I 2.94; Y 2.39; R 3.73; G 3.74; P 2.11; M 3.49; H 3.66; W 1.69; Q 4.15
E23: A 1.77; L 2.17; G 2.28; P 2.29; T 1.92; R 1.88; V 2.62; N 2.87; S 2.67; Y 2.23; M 2.27; Q 2.39; I 1.64

— the supplement of paper PMC10567573
